# From paper PMC4911930
# Target: CENP-T^HFD/-W complex, Q5EE01
# Test: GST pull-down (Coomassie gel quantification)
# Conditions: chain shown with the change, parent: est. 100, read off a plot
# Sequence of CENP-T^HFD/-W complex, Q5EE01 (chain, as listed by the source, chain 1 of 2): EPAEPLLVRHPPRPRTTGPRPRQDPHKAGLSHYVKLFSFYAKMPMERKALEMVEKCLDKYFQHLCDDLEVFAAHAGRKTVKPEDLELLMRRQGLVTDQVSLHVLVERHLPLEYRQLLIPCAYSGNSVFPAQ
# Sequence of CENP-T^HFD/-W complex, Q5EE01 (Q5EE01 whole entry, chain 2 of 2): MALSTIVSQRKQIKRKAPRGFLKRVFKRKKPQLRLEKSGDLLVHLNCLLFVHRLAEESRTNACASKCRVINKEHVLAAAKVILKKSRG
binder,measurement,setting,value
"EPEGEGSDAAAAAAESEIEDETFNPSEDDYEEEEEDSDED [GST-Spt16 amino acids 926–965, Q9Y5B9 E935A; E936A; G937A; D938A; S939A]",percent of parent,Exp=1,81 % Pull-down
same,percent of parent,Exp=2,90 % Pull-down
